Source: patent US20050058658A1, “Compositions and methods for immunotherapy of human immunodeficiency virus (HIV)” (priority 2003, published 2005)

Experiments:
Mouse sarcoma 180 cells = type: cell-based; details: for NK-CMC Activity: wide range of concentrations, in the presence and absence of IL-2 (125 U/ml)
Experimental: In one embodiment, a NK cell assay is used to assess ARP-induced cytotoxic activity of NK-like cells. Briefly, by way of example but not limitation, a NK cell assay can be carried out as follows: large granular lymphocytes (LGLs) are co-cultured with tumor cells at various ratios (effector to target ratio) for four days at 37° C., 5% CO2. […] The culture is terminated at the end of day 4 and vitally stained using a MTT cell viability quantification assay (see Mossman, T. J. Immunol. Methods 1983, 65:55; and Sigma Chemical MTT (M5655) product application note). Culture media is aspirated and the remaining cells are washed and replaced with DMEM/F12 plus FCS, containing MTT. The cells are further incubated for 4-5 hours at 37° C. Absorbance is measured with the aid of a plate reader. Decreased absorbance indicated a decrease in the number of viable cells per well (i.e., cytotoxicity). Absorbance is measured again after the MTT is solubilized by replacement of the medium with 2-propanol containing HCl, which gives a uniform color throughout the well. NK-inducing activity is calculated relative to negative (PBS/BSA) and positive (internal standard) controls.
Spleens (10-15 per experiment) were aseptically removed from male Balb/C mice 6-10 weeks of age. Splenocytes were “squeezed” out of spleens using 2 sterile glass microscope slides. Cells were collected in approximately 10 ml of DMEM/F12 containing 10% fetal calf serum (FCS) and gentamicin (50 μg/ml). Single cell suspensions were generated by passing collected cells through a 70 μm nylon mesh screen. After washing the cell pellet once with PBS (centrifuged at 675×g for 5 min), red blood cells were lysed by brief hypotonic shock (i.e. exposure to sterile distilled, deionized water, followed immediately with appropriate volumes of 10×PBS to return to isotonicity). Remaining cells were centrifuged and resuspended in DMEM/F12+10% FCS and transferred to 75 cm^2 flasks each containing 25 mls DMEM/F12+10% FCS (cells from 5 spleens per flask). The cells were incubated for 60 min. at 37° C. to selectively remove readily adherent cells (mainly fibroblasts and macrophages). After the incubation, the flasks were gently shaken and the non-adherent cells were removed, pelleted by centrifugation, and resuspended in DMEM/F12 (no supplements) (1.0 mL/10^8 cells). A 1.0 mL volume of these cell suspensions were carefully layered onto a 70%/60%/40% (2 mL/4 mL/4 mL) Percoll™ gradients in 15 ml centrifuge tubes and centrifuged for 30 min at 675×G. The cells which sediment at the 40/60 interface represent primarily large granular lymphocytes (LGLs), enriched with NK cells. These cells were carefully removed with a pasteur pipet, centrifuged, washed once with PBS and resuspended in approximately 5 mL DMEM/F12 supplemented with gentamicin (50 μg/mL) and 10% fetal calf serum. Cell counts and appropriate dilutions of LGL cells were made with these cells, as described below. For convenience this LGL cell preparation is interchangeably referred to as NK cells.
Mouse sarcoma 180 cells were seeded into 96 well plates at a density of 5×10^3 cells per well in 100 μl DMEM/F12, supplemented with 10% FCS and gentamicin (50 μg/mL). […] NK cells were added in 100 μL of supplemented DMEM/F12 at designated densities: 0 NK cells/well; 5×10^4 NK cells/well (1:10 target/effector ratio); 1.25×10^5 NK cells/well (1:25 target/effector ratio); 2.5×10^5 NK cells/well (1:50 target/effector ratio); and, 5×10^5 NK cells/well (1:100 target/effector ratio). (Note: routinely, only the 1:50 and 1:100 ratios were used for screening purposes. IL2 was added as a media supplement with final concentration of 125 U/mL.). Co-cultures were incubated for 4 days at 37° C., 5% CO2, and terminated and vitally stained using a MTT cell viability quantification assay (see Mossman, T. J. Immunol. Methods 65:55 (1983); and Sigma Chemical MTT (M5655) product application note). […]

[1] = tested on: freshly isolated dendritic cells (CD11c+ splenocytes); experiment: Dendritic cell (DC) assay: IL-12 release; type: cell-based, BALB/c mice; details: tested for synergism and inhibition
Source text: In a preferred embodiment, dendritic cell (DC) assay is used to follow interleukin-12 (IL-12) release from freshly isolated dendritic cells as an index of DC activation (see section 13). […] Briefly, by way of example but not limitation, a DC assay can be carried out as follows: freshly isolated dendritic cells (CD11c^+ splenocytes, e.g., isolated from the spleens of BALB/c mice within ten hours of assaying the activity) are suspended at a density of 0.5×10^6 cells per mL in cytokine supplemented culture media (GM-CSF, 1.0 ng/ml; IL-4, 1.0 ng/ml; IFNg, 3 ng/ml; anti mouse CD40; 0.5 mg/ml). […] Mouse IL-12 release from the dendritic cells (CD11c^+ splenocytes) is then measured using ELISA.
DCs were isolated from the spleens of male BALB/c mice 8-12 weeks of age (Harlan Bioproducts for Science, Indianapolis, Ind.), using the magnetic assisted cell separation (MACS) system purchased from Miltenyi Biotech. In summary: Spleens were aseptically removed from mice and placed into a petri dish containing 5 mL holding media (DMEM/F12 supplemented with 10% FCS and antibiotics). Each spleen was then injected with ˜0.5 mls collagenase D solution (1 mg/mL in 10 mM Hepes-NaOH, pH 7.4, 150 mM NaCl, 5 mM MgCl2, 1.8 mM CaCl2), placed into 5-10 mL collagenase D, cut into 5-6 pieces and incubated at 37° C. for 45-60 min. Collagenase-digested spleens were then processed with glass slides and passed through a 70 μm nylon mesh cell strainer. After the strainer was flushed with 40 mL culture media, cells were centrifuged (8 min @ 200×G), suspended in 1 mL PBS and subjected to red blood cell lysis by incubating the cell suspension for 5 min at room temperature in 10 mL lysis buffer (155 mM NH4Cl, 10 mM KHCO3, 0.1 mM EDTA), followed by dilution in PBS to 50 mL and centrifugation (8 min @ 200×g). The splenocytes were then suspended in 10 mL MACS buffer (PBS pH 7.2, supplemented with 2 mM EDTA and 0.5% BSA), passed through a 40 μm nylon mesh cell strainer which was flushed with 40 mL MACS buffer. A preliminary cell count was taken at this time, prior to centrifugation (8 min @ 200×G). The splenocytes were suspended at a density of 10^8 cells per 400 μL MACS buffer. Paramagnetic MicroBeads coated with anti-CD11c antibody were mixed with the splenocyte suspension (100 μL per 10^8 cells), incubated at +4° C. for 15 min, washed, suspended in 1.0 mL MACS buffer and passed through a MS+separation column placed within a strong magnetic field. CD11c^+ cells were retained in the column whereas CD11c^− cells were washed off the column as the flow-through cell fraction. CD11c^+ cells were then collected by removing the column out of the magnetic field and flushing the column twice with 1 mL of MACS buffer. CD11c^+ cells were washed once with culture media and suspended at a density of 0.5×10^6 cells per mL in cytokine supplemented culture media {DMEM/F12 supplemented with 10% FCS and gentamicin containing mouse GM-CSF (1 ng/mL), mouse IL-4 (1 ng/mL), mouse IFNγ (3 ng/mL) and anti mouse CD40 (0.5 mg/mL)}.
Mouse IL12 release from CD11c^+ splenocytes was measured using ELISA. Briefly, CD11c+ cell culture supernatants were sampled following an overnight incubation (usually 15-18 hrs). Media samples (100 μL) were added to ELISA plates coated with anti mouse IL12 (p70) capture antibody (R&D #MAB419; 250 ng in 100 μL per well) and incubated either at 37° C. or room temperature for 2 hrs. The ELISA plates were washed extensively with wash buffer after which 100 μL per well of detection antibody/detection reagent (biotinylated anti-mouse IL12; R&D #BAF419 at 50 ng/mL and streptavidin-HRP) was added. The ELISA plates were again incubated for 2 hours, washed and exposed to […] substrate solution (Pierce #34021) for 20 min. The substrate reaction was stopped by adding 100 μL/well 2M H2SO4. ELISA plates were read at 450 nm (corrected at 540 nm) and mIL12(p70) levels were calculated using an intra-ELISA standard curve (range: 2000-31.25 pg/mL).

Row | Molecule | NK-inducing activity (Mouse sarcoma 180 cells) | maximal response, cytotoxicity (Mouse sarcoma 180 cells) | Enhancement of NK-CMC compared to BEX (Mouse sarcoma 180 cells; same conditions as BEX) | DC/mIL12 Release [1] | NK-CMC Activity (Mouse sarcoma 180 cells) | Effect on NK-CMC (footnotes of Table 16) (Mouse sarcoma 180 cells) | basal NK-CMC activity (Mouse sarcoma 180 cells; IL2 alone (125 U/ml), highest NK:S180 ratio (100_NK))
1 | IFNγ: Interferon gamma | slight increase in NK-CMC | ^6Weakly activates NK cells in the presence of IL-2 (maximal response < 50% cytotoxicity). | relatively weak enhancers | − |  |  | 
2 | TGFβ |  |  |  | − | − |  | 
3 | IL-6: interleukin |  |  |  | − | − |  | 
4 | IL-1β: interleukin (protein, UniProt P10749 118-269, looked up) Interleukin-1 beta: VPIRQLHYRLRDEQQKSLVLSDPYELKALHLNGQNINQQVIFSMSFVQGEPSNDKIPVALGLKGKNLYLSCVMKDGTPTLQLESVDPKQYPKKKMEKRFVFNKIEVKSKVEFESAEFPNWYISTSQAEHKPVFLGNNSGQDIIDFTMESVSS |  |  |  | − | −^3 |  | 
5 | IL-2: Interleukin 2 (protein, UniProt P04351 21-169, looked up) Interleukin-2: APTSSSTSSSTAEAQQQQQQQQQQQQHLEQLLMDLQELLSRMENYRNLKLPRMLTFKFYLPKQATELKDLQCLEDELGPLRHVLDLTQSKSFQLEDAENFISNIRVTVVKLKGSDNTFECQFDDESATVVDFLRRWIAFCQSIISTSPQ |  |  |  | − |  | ^4IL-2 significantly increases NK-CMC only at high concentrations. | 10-15%
6 | IL-10: interleukin (protein, UniProt P18893 19-178, looked up) Interleukin-10: SRGQYSREDNNCTHFPVGQSHMLLELRTAFSQVKTFFQTKDQLDNILLTDSLMQDFKGYLGCQALSEMIQFYLVEVMPQAEKHGPEIKEHLNSLGEKLKTLRMRLRRCHRFLPCENKSKAVEQVKSDFNKLQDQGVYKAMNEFDIFINCIEAYMMIKMKS |  |  |  | inhibitory | − |  | 
